Like-named read-outs stand apart in the source and are kept apart here.
Key:
[1] = target: human C5 R885H (human, UniProt P01031); test: BLI
[2] = target: T1, human C5 (human, UniProt P01031); test: BLI
[3] = target: human C5 W917S (human, UniProt P01031); test: BLI
[4] = target: T2, human C3 (human, UniProt P01024); test: BLI
[5] = target: T3, cynomolgus C5 (cynomolgus); test: BLI
T3 chain: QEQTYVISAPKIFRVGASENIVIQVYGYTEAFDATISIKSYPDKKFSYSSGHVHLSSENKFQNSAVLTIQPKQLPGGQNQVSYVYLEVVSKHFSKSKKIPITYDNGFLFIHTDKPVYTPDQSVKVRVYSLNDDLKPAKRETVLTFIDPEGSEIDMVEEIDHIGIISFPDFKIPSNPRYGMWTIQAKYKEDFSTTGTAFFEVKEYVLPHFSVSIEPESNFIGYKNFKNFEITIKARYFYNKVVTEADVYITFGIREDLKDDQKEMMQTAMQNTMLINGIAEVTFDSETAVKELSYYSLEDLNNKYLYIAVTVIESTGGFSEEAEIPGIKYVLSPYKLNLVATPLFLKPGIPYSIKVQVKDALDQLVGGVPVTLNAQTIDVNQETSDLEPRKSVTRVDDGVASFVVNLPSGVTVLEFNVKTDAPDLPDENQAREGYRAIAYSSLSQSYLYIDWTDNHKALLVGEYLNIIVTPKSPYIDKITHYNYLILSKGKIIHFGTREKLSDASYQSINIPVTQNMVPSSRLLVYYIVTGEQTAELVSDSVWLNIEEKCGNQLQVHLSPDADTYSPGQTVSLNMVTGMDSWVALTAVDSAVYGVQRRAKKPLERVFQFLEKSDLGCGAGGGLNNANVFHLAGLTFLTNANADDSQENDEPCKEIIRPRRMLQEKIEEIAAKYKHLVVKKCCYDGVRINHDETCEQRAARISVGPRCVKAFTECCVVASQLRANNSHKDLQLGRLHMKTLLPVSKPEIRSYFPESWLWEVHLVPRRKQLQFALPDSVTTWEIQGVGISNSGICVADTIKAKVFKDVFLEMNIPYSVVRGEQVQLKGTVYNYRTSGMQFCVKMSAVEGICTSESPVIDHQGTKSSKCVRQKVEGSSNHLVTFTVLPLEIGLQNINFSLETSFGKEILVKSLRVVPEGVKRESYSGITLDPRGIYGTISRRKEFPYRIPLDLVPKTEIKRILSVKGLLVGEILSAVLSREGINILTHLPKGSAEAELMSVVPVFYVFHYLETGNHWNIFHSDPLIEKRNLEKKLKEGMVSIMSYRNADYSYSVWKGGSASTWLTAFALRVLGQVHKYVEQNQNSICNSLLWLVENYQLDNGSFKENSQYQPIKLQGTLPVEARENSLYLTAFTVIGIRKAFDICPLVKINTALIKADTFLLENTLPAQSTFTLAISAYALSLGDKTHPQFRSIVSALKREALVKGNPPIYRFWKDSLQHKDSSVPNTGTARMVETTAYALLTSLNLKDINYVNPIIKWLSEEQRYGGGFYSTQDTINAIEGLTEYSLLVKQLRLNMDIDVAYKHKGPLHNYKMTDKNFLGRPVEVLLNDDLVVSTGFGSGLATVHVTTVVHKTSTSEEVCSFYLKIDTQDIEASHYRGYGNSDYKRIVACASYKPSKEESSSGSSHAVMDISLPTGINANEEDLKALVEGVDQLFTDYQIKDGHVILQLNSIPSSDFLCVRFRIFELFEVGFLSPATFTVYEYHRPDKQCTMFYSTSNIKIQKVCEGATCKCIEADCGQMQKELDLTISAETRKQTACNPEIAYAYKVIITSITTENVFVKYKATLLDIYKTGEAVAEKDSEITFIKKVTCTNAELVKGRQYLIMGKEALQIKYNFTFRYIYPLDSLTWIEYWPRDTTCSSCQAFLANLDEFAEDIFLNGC

[6] = target: T1, human C5; test: BLI; remark: listed apart in the source
[7] = target: T2, human C3; test: BLI; remark: listed apart in the source
[8] = target: T1, human C5; test: BLI, bivalent

B1: C5S2.2 (antibody, V domains shown)
VH: EVQLVESGGGLVQAGGSLRLSCAASGNIFHQSDMGWYRQAPGKEREFVAAIDYGTNTYYADSVKGRFTISRDNSKNTLYLQMNSLRPEDTAVYYCAARDTSYWDHVYWGQGTLVTVSS
binding result [1]: no binding | Kd [2]: 12 nM | binding result [3]: no binding | binding result [4]: no binding | binding result [5]: no binding | Kd [6]: 12 nM

B2: C3S7 (antibody, V domains shown)
VH: QVQLQESGGGLVQAGGSLRLSCAASGYIFTGVDMGWYRQAPGKEREFVAAISYGASTYYADSVKGRFTISRDNAKNTVYLQMNSLKPEDTAVYYCAASLSNTYLLDLFFRYWGQGTQVTVSS
binding result [7]: no binding

B3: C5S2.2-Fc (antibody, V domains shown)
VH: B1 VH
Kd [8]: 0.654 nM

— patent US20260347449 (published 2026)
